The test system of data set [1] is MS2 coat protein. As to the kind of experiment: apparent KD of MS2 coat protein, switch OFF state (with FMN for OFF switches, without FMN for ON switches); designed switch direction (-1 OFF switch, 1 ON switch): 1; higher = weaker reporter binding. Conditions: FMN input: 0 or 200 uM; Eterna round: R93 (includes R88 designs). In a few lines:
(§1)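 For every design, apparent KD is the median of normalised binding-curve fits from its clusters. The RNA switches were transcribed on-chip from Illumina sequencing clusters and titrated with SNAP-549-labelled MS2 coat protein (twofold steps, 0.7 or 1.5 nM to 3 µM; 0.8–1.5 h to 10–20 min per step). Titrations used 100 mM Tris-HCl pH 7.5, 80 mM KCl, 4 mM MgCl2, without or with constant ligand.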

Data set [2] deals with MS2 coat protein. As to the kind of experiment: apparent KD of MS2 coat protein, switch ON state; designed switch direction (-1 OFF switch, 1 ON switch): 1; higher = weaker reporter binding. To be noted: FMN input: 0 or 200 uM; Eterna round: R93 (includes R88 designs). In outline: as §1

As for “GAGGACCUAGGAUAGGAUAUGUGAAAAAUUACAUGAGGAUCACCCAUGUCCAUUUAUAUGGGAACAUAGAAGGGUUCUGGUUAUC [Mat - Same state - Malcolm Mod - D150]”, the results for the “apparent KD of MS2 coat protein” value in the data set with MS2 coat protein [1] and in the data set on MS2 coat protein [2] were 0.0616 µM and 0.0357 µM, respectively.

Consider “GAUAAACAUGAGGAUCACCCAUGUAGAAAUAUGGGAGGAUAUACAAAGACGAUAGUCAAAGUAGAAGGCCUAAAAG [77%, Mat - Mod of Eli - With 2 more U's]”, for which the “apparent KD of MS2 coat protein” value in the data set with MS2 coat protein [1] came to 0.0859 µM; in the data set with MS2 coat protein [2] it was 0.0248 µM.

As to “GAUAAACAUGAGGAUCACCCAUGUAGAUAUAUGGGAGGAUAUACAUAGACGAUAGUCAUAGUAGAAGGCCUAAUAG [77%, Mat - Mod of Eli - With 6 more U's]”, the entries for the “apparent KD of MS2 coat protein” value with MS2 coat protein [1] and with MS2 coat protein [2] were 0.119 µM and 0.0356 µM, respectively.

On to “GAUUACAUAGUUCAGGAUAUAUGAAUAGUCACAUGAGGAUCACCCAUGUCCAUUUAUAUGGGCACAUAGAAGGGAGGUAGGGAUC [Mat - Same state - Malcolm Mod - D148]”, for which the figures for the “apparent KD of MS2 coat protein” value in the data set with MS2 coat protein [1] and in the data set with MS2 coat protein [2] were 0.571 µM and 0.392 µM, respectively.

Take “GCAGGGCUAAACUAGGAUAUGGGUGUCUAGACAUGAGGAUCACCCAUGUGAUGGCAAAACAAAGCUCAGAAGGAGUGGUAGCCCA [Quendi]”: the “apparent KD of MS2 coat protein” value in the data set with MS2 coat protein [1] is 0.0754 µM; with MS2 coat protein [2], 0.0119 µM.

On to “GCUCCAGCUAGCAAGGAUAUGUAGGAUGCUACAUGAGGAUCACCCAUGUGCUGAAAUAAGUCCCGGCAGAAGGUGUGACUGGAGC [Quleorla]”, for which the entries for the “apparent KD of MS2 coat protein” value in the data set with MS2 coat protein [1] and in the data set with MS2 coat protein [2] were 0.0199 µM and 0.0138 µM, respectively.

Take “GCUGGGCUACACUAGGAUAUGGGUGUCUAAACAUGAGGAUCACCCAUGUGAUGGCAAAACAAAGCUCAGAAGGAGUCGUAGCCCA [Inrionarus]”: the “apparent KD of MS2 coat protein” value in the data set on MS2 coat protein [1] was found to be 0.0223 µM; in the data set on MS2 coat protein [2], 0.0147 µM.

As to “GGAAGACAUGAGGAUCACCCAUGUGGGAAUAUGGGAGGAUAUACAAAGACGAGAGUCAGAGUAGAAGGCCUAGGAG [salish99-ss1-101]”, the entries for the “apparent KD of MS2 coat protein” value with MS2 coat protein [1] and with MS2 coat protein [2] were 0.106 µM and 0.0682 µM, respectively.

In the case of “GGAUAUAUACAGGAGGAUAUGAGAACAAAGACAUGAGGAUCACCCAUGUACAAAAGGUGGAACAAUCAGAAGGUCUAAACAACAAA [Thing 1 and Thing 2]”, the “apparent KD of MS2 coat protein” value was 0.0497 µM with MS2 coat protein [1] and 0.061 µM in the data set on MS2 coat protein [2].

“GGCUGCGUUGUGAAGGAUAUCCGCGUCUGGACAUGAGGAUCACCCAUGUAUACUUGGAUCGUGCAGGAGAAGGUCAAGGGUGAUU [JR_SS002_Sub1211]”: the figures for the “apparent KD of MS2 coat protein” value with MS2 coat protein [1] and with MS2 coat protein [2] were 0.0633 µM and 0.13 µM, respectively.

“GGGAAUAAAAGAGAGGAUAUCCAAAGGAAAACAUGAGGAUCACCCAUGUAAAAGGAAGGAAAUUGGGAGAAGGCUCAAGAUAGGG [salish99-ss2-012]”: the “apparent KD of MS2 coat protein” value in the data set with MS2 coat protein [1] was found to be 0.0261 µM; with MS2 coat protein [2], 0.0294 µM.

As for “GGGAGACAUGAGGAUCACCCAUGUGAGAAGAGGCGAGGAUAUCGAAAGAAAGAAGAGAAACGAGAAGGCGCGAGAG [salish99-SS1-057]”, the results for the “apparent KD of MS2 coat protein” value in the data set on MS2 coat protein [1] and with MS2 coat protein [2] were 0.0598 µM and 0.048 µM, respectively.

As for “GGGAGACAUGAGGAUCACCCAUGUGAGAAGAGGCGAGGAUAUCGAAAGAAAGAAGAGAAACGAGAAGGCGCGAGCG [salish99-SS1-060]”, the “apparent KD of MS2 coat protein” value in the data set on MS2 coat protein [1] was found to be 0.0867 µM; with MS2 coat protein [2], 0.0325 µM.

Turning to “GGGAGGAAGAGAGAGGAUAUCCAAAGGAAAACAUGAGGAUCACCCAUGUAAAAGGUAGGAAAUUGGGAGAAGGCUCAAAAGACGG [salish99-ss2-047]”, the “apparent KD of MS2 coat protein” value worked out at 0.0525 µM in the data set on MS2 coat protein [1] and 0.0281 µM in the data set on MS2 coat protein [2].

“GGGAGGAAGAGAGAGGAUAUCCAAAGGAAAACAUGAGGAUCACCCAUGUAAAAGGUAGGAAAUUGGGAGAAGGCUCAAAAGAGGA [salish99-ss2-039]”: the “apparent KD of MS2 coat protein” value in the data set with MS2 coat protein [1] is 0.0303 µM; with MS2 coat protein [2] it was 0.0313 µM.

Take “GUAAAACAUGAGGAUCACCCAUGUAGAAAUAUGGGAGGAUAUACGAAGACGAAAGUCAAAGUAGAAGGCCUAAAGU [Mat - Same State 1 - Eli mod - D111]”: the “apparent KD of MS2 coat protein” value in the data set on MS2 coat protein [1] was found to be 0.0549 µM; in the data set on MS2 coat protein [2], 0.0261 µM.

Turning to “GUGGUGUAGAUACAGGAUAUGUUGCUCGUAACAUGAGGAUCACCCAUGUAUCUAUGAGAUUAAAUGCAGAAGGGUGCACACCACG [Maerveen]”, the “apparent KD of MS2 coat protein” value stood at 0.374 µM with MS2 coat protein [1] and 0.0173 µM in the data set on MS2 coat protein [2].

As for “UAAAAAAAAAGGCAGGAUAUCCAAAAUAAAACAUGAGGAUCACCCAUGUAAAAAAAAAAAAAAUGGGAGAAGGGCCAAAAAAAAU [Mat - Same State 2 - Mod - 159]”, the “apparent KD of MS2 coat protein” value with MS2 coat protein [1] turned out to be 0.027 µM; in the data set with MS2 coat protein [2], 0.014 µM.

Take “UAAAAACAUGAGGAUCACCCAUGUGAGAACAUGGGAGGAUAUACGAAGACGAAAGUCAAAGUAGAAGGCCUAAAAU [Mat - Same State 1 - Mod - D171]”: the “apparent KD of MS2 coat protein” value in the data set with MS2 coat protein [1] came to 0.0156 µM; with MS2 coat protein [2], 0.302 µM.

Turning to “UACAGGAAGAGAGAGGAUAUCCAAAGGAAAACAUGAGGAUCACCCAUGUAAAAGGUAGGAAAUUGGGAGAAGGCUCAAGAGAGAG [salish99-ss2-090]”, the results for the “apparent KD of MS2 coat protein” value in the data set with MS2 coat protein [1] and in the data set with MS2 coat protein [2] were 0.032 µM and 0.021 µM, respectively.

As to “UAUCAUUACACGAAGGAUAUCGAAAAAAGAACAUGAGGAUCACCCAUGUAAAAUAAAACACAGAACGAGAAGGUCGAGGGUGAAG [JR_SS002_Sub701]”, the “apparent KD of MS2 coat protein” value in the data set with MS2 coat protein [1] came out at 0.0342 µM; with MS2 coat protein [2], 0.0158 µM.

As for “UAUCAUUACACGAAGGAUAUCGAAAAAAGAACAUGAGGAUCACCCAUGUGAAAUAAAAUACAGAACGAGAAGGUCGAGGGUGAAG [JR_SS002_Sub702]”, the “apparent KD of MS2 coat protein” value worked out at 0.0303 µM in the data set on MS2 coat protein [1] and 0.0231 µM in the data set on MS2 coat protein [2].

For “UAUCAUUACACGAAGGAUAUCGAUAAUUGAACAUGAGGAUCACCCAUGUGAUAUAUUUUACAGUUCGAGAAGGUCGAGGGUGAAG [JR_SS002_Sub705]”, the “apparent KD of MS2 coat protein” value was found to be 0.0324 µM in the data set with MS2 coat protein [1] and 0.0166 µM in the data set on MS2 coat protein [2].

Turning to “UGAAAACAUGAGGAUCACCCAUGUAAAAACAUGGGAGGAUAUUGAAAAAAAAAAAAAAAACAAGAAGGCCCAAAAA [crooked]”, the “apparent KD of MS2 coat protein” value with MS2 coat protein [1] came out at 0.0253 µM; in the data set on MS2 coat protein [2] it was 0.0377 µM.

“UGGAGACAUGAGGAUCACCCAUGUGAGAAGAGGCGAGGAUAUCGAAAAAAAAAAAAAAAACGAGAAGGCGCGAGAC [salish99-SS1-010]”: the “apparent KD of MS2 coat protein” value with MS2 coat protein [1] came to 0.0412 µM; in the data set on MS2 coat protein [2], 0.0333 µM.

As to “UGGAGACAUGAGGAUCACCCAUGUGAGAAGAGGCGAGGAUAUCGAAAGAAAGAAGAGAAACGAGAAGGCGCGAGCU [salish99-SS1-037]”, the “apparent KD of MS2 coat protein” value in the data set with MS2 coat protein [1] was 0.0362 µM; in the data set on MS2 coat protein [2], 0.0224 µM.

For “UUACAGCACGGGUAGGAUAUGUAGGGUGGUACAUGAGGAUCACCCAUGUAUCCACCCUUCUAACGGCAGAAGGGCCUGUCGCUGC [Riarve]”, the entries for the “apparent KD of MS2 coat protein” value in the data set with MS2 coat protein [1] and in the data set with MS2 coat protein [2] were 0.0154 µM and 0.0169 µM, respectively.

Take “UUUAAUUACACGAAGGAUAUCGAUUUUCAGACAUGAGGAUCACCCAUGUAGUAGAUUUCCCUGUUCGAGAAGGUCGCGGGUGAAC [JR_SS002_Sub602]”: the “apparent KD of MS2 coat protein” value turned out to be 0.0303 µM in the data set with MS2 coat protein [1] and 0.0393 µM in the data set on MS2 coat protein [2].

On to “UUUCAUUACACGAAGGAUAUCGCUUUUCCGACAUGAGGAUCACCCAUGUAGUAGACCUCCCUGUUCGAGAAGGUCGCGGGUGAAC [JR_SS002_Sub604]”, for which the “apparent KD of MS2 coat protein” value is 0.0324 µM with MS2 coat protein [1] and 0.192 µM in the data set with MS2 coat protein [2].

The values are drawn from the supplement of paper PMC9170038.
